# Numbering of substitutions follows the chain as printed.
# T1: GkDnaC R145A (Geobacillus kaustophilus HTA426, UniProt Q5KU75 1-454, R145A)
# T1 sequence: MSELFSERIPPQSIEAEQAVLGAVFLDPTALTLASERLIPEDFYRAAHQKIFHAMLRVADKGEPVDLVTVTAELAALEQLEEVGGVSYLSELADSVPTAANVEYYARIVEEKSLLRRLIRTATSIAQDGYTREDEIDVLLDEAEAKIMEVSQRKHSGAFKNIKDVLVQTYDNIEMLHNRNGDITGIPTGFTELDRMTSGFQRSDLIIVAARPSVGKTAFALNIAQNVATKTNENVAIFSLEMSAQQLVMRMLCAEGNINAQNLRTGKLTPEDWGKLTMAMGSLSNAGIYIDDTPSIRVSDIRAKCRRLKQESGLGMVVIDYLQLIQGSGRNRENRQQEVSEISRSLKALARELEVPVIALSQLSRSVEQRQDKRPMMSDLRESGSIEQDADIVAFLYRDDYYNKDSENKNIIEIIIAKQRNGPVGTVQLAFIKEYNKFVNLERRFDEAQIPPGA
# T2: GkDnaC R117A (Geobacillus kaustophilus HTA426, UniProt Q5KU75 1-454, R117A)
# T2 sequence: T1 sequence with R117A, A145R
# T3: GkDnaC R120A (Geobacillus kaustophilus HTA426, UniProt Q5KU75 1-454, R120A)
# T3 sequence: T1 sequence with R120A, A145R
# T4: GkDnaC R332A (Geobacillus kaustophilus HTA426, UniProt Q5KU75 1-454, R332A)
# T4 sequence: T1 sequence with A145R, R332A
# B1: 5'Bio-(dT)30 (ssDNA)
# DNA: TTTTTTTTTTTTTTTTTTTTTTTTTTTTTT
# Key:
# Experiment in all cases: SPR
# [1] = target: T1, GkDnaC R145A
# [2] = target: T2, GkDnaC R117A
# [3] = target: T3, GkDnaC R120A
# [4] = target: T4, GkDnaC R332A
binder,measurement,setting,value
B1,Kd,[1],1390 nM
same,Kd,[2],1470 nM
same,Kd,[3],1730 nM
same,Kd,[4],6640 nM

# Reference: paper PMC2647316 (Nucleic Acids Research, 2008)
